# Patent publication US20260055200A1, “COMBINATION THERAPIES” (Alligator Bioscience AB, priority 2022, published 2026)
# B1: Mitazalimab: agonistic, human monoclonal (IgG1) antibody targeting CD40 (antibody, chains of the INN, looked up, V domains shown)
# VH: EVQLLESGGGLVQPGGSLRLSCAASGFTFSTYGMHWVRQAPGKGLEWLSYISGGSSYIFYADSVRGRFTISRDNSENALYLQMNSLRAEDTAVYYCARILRGGSGMDLWGQGTLVTVSS
# VL: QSVLTQPPSASGTPGQRVTISCTGSSSNIGAGYNVYWYQQLPGTAPKLLIYGNINRPSGVPDRFSGSKSGTSASLAISGLRSEDEADYYCAAWDKSISGLVFGGGTKLTVL
# Experiment: OPTIMIZE-1 safety and tolerability (AEs, DLTs, RP2D; CTCAE v5.0)
# Format: in vivo
# Description: Two dose levels, 450 μg/kg and 900 μg/kg, of mitazalimab were planned to be administered in combination with mFOLFIRINOX in Part 1. During the first treatment cycle (the first 21 days) for each patient, mitazalimab was administered on Day 1 and Day 10 and mFOLFIRINOX infusion started on Day 8. During the following 14-day treatment cycles, mFOLFIRINOX was administered on Day 1 and mitazalimab on Day 3 of each cycle, see FIG. 3. In case the number of DLTs for a dose level fulfilled the stop criteria, see Table 3 Escalation rules based on number of patients with DLTs, at the lowest dose level of mitazalimab, the chemotherapy mFOLFIRINOX could be exchanged to the chemotherapy gemcitabine plus nab-paclitaxel, as illustrated in FIG. 2. If changing the chemotherapy from mFOLFIRINOX to gemcitabine plus nab-paclitaxel, see dosage schedule in Example 5.
# The dose escalation in Part 1 follows a BOIN design with at least 3 evaluable patients per dose level. According to the BOIN design, each time a cohort of patients has been completed, a decision is made whether the next cohort should remain on the same dose, escalate to the next higher dose level or de-escalate to the next lower dose level, according to the decision rules presented in Table 3 below. A range of 3-9 patients was included at each dose level. In this study, the de-escalation from 450 μg/kg mitazalimab in combination with mFOLFIRINOX was a change of chemotherapy to gemcitabine plus nab-paclitaxel as previously described.
# Mitazalimab in combination with mFOLFIRINOX: The DLT evaluation period is defined as the time from the first dose of mitazalimab (Day 1) until Day 21 in the first treatment cycle (Cycle 1). Mitazalimab in combination with gemcitabine plus nab-paclitaxel: The DLT evaluation period is defined as the time from the first dose of mitazalimab (Day 1) until Day 28 within the first treatment cycle of 35 days (Cycle 1). This period enabled the DRC to evaluate for early safety of mitazalimab together with the chemotherapy combination.
# The same DLT criteria applied for mitazalimab in combination with mFOLFIRINOX and gemcitabine plus nab-paclitaxel. A DLT was considered related to study treatment unless there is a clear, well-documented, alternative explanation for the adverse event (AE). AEs that meet the above criteria but occur after the DLT evaluation period were not defined as DLTs, unless the onset of the event was during the DLT evaluation period. The event could be reported as AEs/Serious adverse events (SAEs), as applicable.
# Number or patients experiencing AEs and number of events were summarized by SOC and preferred term. In addition, the following AEs were presented: • Incidence of DLT (Part 1); • AEs Grade 3 or higher; • Serious AEs; • AEs leading to discontinuation of study treatment; and • AEs leading to death.
# The safety set comprised all patients that received any study treatment (mitazalimab) and was used for all endpoints related to the safety objectives.
# The objective of the first (Phase 1b) part of the study was to determine the RP2D of mitazalimab+mFOLFIRINOX. Mitazalimab was escalated from 450 μg/kg to 900 μg/kg following a Bayesian optimal interval design with at least 3 patients enrolled per dose level. In the first 21-day treatment cycle (Dose Limiting Toxicity assessment period), mitazalimab was administered intravenously on days 1 and 10 and mFOLFIRINOX starts on day 8. In the second and subsequent cycles, treatment followed a 14-day cycle schedule where mitazalimab was administered 2 days after mFOLFIRINOX.
molecule,measurement,setting,value
B1,AESIs,in vivo,None
same,DLTs,in vivo,G3 Headache
same,"DLTs, %",in vivo,(9.1) %
same,"Discontinued treatment: Unacceptable toxicity, percentage of patients",in vivo,(11.6) %
same,"Discontinued treatment: Unacceptable toxicity, percentage relative to number discontinued",in vivo,15.4%
same,"Grade 1 or 2 TEAEs, %",in vivo,81.8%
same,"Grade 3 TEAEs, %",in vivo,36.4%
same,"Mitazalimab Related Adverse Events: Grade 1 or 2 TEAEs, %",in vivo,(72.7) %
same,"Mitazalimab Related Adverse Events: Grade 3 TEAEs, %",in vivo,(9.1) %
same,"Mitazalimab Related Adverse Events: patients with any TEAEs, %",in vivo,(72.7) %
same,Mitazalimab-related Grade 1-2 Fatigue,in vivo,3
same,Mitazalimab-related Grade 1-2 Fever or similar,in vivo,6
same,Mitazalimab-related Grade 3 Fatigue,in vivo,2
same,Mitazalimab-related Grade 3 Headache,in vivo,1
same,Mitazalimab-related Grade 3 Hypokalemia,in vivo,1
same,"Patients with any TEAEs, %",in vivo,81.8%
same,Mitazalimab-related Grade 1-2 Flu/muscle ache,of 11 patients at 2 dose levels,5
